Numbering of substitutions follows the chain as printed. Values belong to the binder of their own block, whether it stands above or below them.
Assays:
[1] = biological target: T1, human tissue factor (TF), membrane-bound on cells (human, UniProt P13726 33-295); assay: FACS, Fab fragment on BxPC3 cells
T1 construct: whole, on cells; also called cellular TF
Protocol: (§1) Cells were resuspended in PBS (2×10⁶ cells/ml), put in 96-well V-bottom plates (50 μl/well). 50 μl of serially diluted HuMab in FACS buffer (PBS supplemented with 0.1% BSA and 0.02% Na-azide) was added to the cells and incubated for 30 minutes on ice. After washing three times with FACS buffer, 50 μl of phycoerythrin (PE)-conjugated goat anti-human IgGFc (Jackson ImmunoResearch), diluted 1:100 in FACS buffer, was added. After 30 minutes on ice (in the dark), cells were washed three times, and specific binding of the HuMabs was detected by flow cytometry on a FACSCalibur (BD Biosciences). HuMab-KLH was used as a negative control. Mouse anti-TF followed by PE-conjugated anti-mouse IgGFc was used as positive control. Binding curves were analyzed using non-linear regression (sigmoidal dose-response with variable slope) using GraphPad Prism V4.03 software (GraphPad Software, San Diego, Calif., USA).
(§2) Binding of Fab fragments of anti-TF HuMabs to TF was measured by ELISA (coated extracellular domain of TF) and by FACS (TF on BxPC3 cells). ELISA was performed essentially as described supra. Bound Fab fragments were detected using HRP-conjugated donkey-anti human H+L. FACS analysis was performed essentially as described supra. FITC-conjugated goat anti-human IgG (H+L) (Jackson) was used to detect bound lead candidates. Fluorescence was measured on a FACSCantoII. Binding curves were analyzed as described supra, using GraphPad Prism 5 software.

[2] = biological target: T2, TFECDHis (extracellular domain of tissue factor, amino acid 1-251, with C-terminal His tag) (human, UniProt P13726 33-251); assay: ELISA, Fab fragment on coated extracellular domain of TF
T2 construct: range 1-251; The stated range 1-251 starts at residue 1 of NP-001984; also called extracellular domain of TF
Protocol: (§3) The specificity of the obtained anti-TF HuMabs was evaluated by ELISA. ELISA plates (Microlon; Greiner Bio-One) were coated overnight at +4° C. with 0.5 μg/mL of TFECDHis in PBS, pH 7.4. Coated ELISA plates were emptied and blocked for one hour at room temperature with 2% (v/v) chicken serum (Gibco, Paisley, Scotland) in PBS and washed with PBS containing 0.05% Tween 20 (PBST). Subsequently, HuMabs, serially diluted in PBSTC (PBS supplemented with 2% (v/v) chicken serum and 0.05% (v/v) Tween-20), were incubated for 1 hr at RT under shaking conditions (300 rpm). Bound HuMabs were detected using HRP-conjugated goat-anti-human IgG antibodies (Jackson ImmunoResearch) diluted 1:5,000 in PBSTC, which were incubated for 1 hr at RT under shaking conditions (300 rpm). […] HuMab-KLH (a human monoclonal antibody against KLH (keyhole limpet haemocyanin)), was used as a negative control. Mouse anti-human TF (ERL) was used as positive control (HRP labeled anti-mouse IgG as conjugate). Binding curves were analyzed using non-linear regression (sigmoidal dose-response with variable slope) using GraphPad Prism V4.03 software.
as §2

[3] = biological target: T3, murine tissue factor (TF) on transfected HEK293F cells (murine, UniProt P20352 29-294); assay: FACS on transfected HEK293F cells, 30 µg/mL antibody [Figure 18; no figure label on the sheet]
T3 construct: whole, on cells; also called murine TF; TFmm
T3 sequence (looked up): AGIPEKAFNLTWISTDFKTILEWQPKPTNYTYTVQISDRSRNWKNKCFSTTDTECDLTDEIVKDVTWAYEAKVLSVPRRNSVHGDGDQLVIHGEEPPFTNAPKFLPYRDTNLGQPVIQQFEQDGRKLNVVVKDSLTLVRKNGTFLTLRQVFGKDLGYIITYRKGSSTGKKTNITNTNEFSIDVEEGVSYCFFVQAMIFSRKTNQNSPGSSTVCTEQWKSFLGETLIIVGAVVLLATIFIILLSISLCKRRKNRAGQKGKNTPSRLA
Protocol: as §1
To determine domains important for binding of anti-TF HuMabs to human TF, DNA shuffling was performed between human and murine TF. Shuffle constructs were prepared from DNA encoding human TF, by replacing human domains with murine domains and from DNA encoding murine TF by replacing murine domains with human domains.

[4] = biological target: T1, human tissue factor (TF), …; assay: FACS, A431 cells
Protocol: as §1

[5] = biological target: T1, human tissue factor (TF), …; assay: FACS, Bx-PC3 cells
Protocol: as §1

[6] = biological target: T1, human tissue factor (TF), …; assay: FACS, MDA-MB-231 cells
Protocol: as §1

[7] = biological target: T1, human tissue factor (TF), …; assay: cell-based or functional assay
[8] = biological target: T1, human tissue factor (TF), …; assay: cell-based or functional assay; remark: listed apart in the source
TF (Innovin) [9] = biological target: T4, TF (Innovin) (UniProt P13726 33-295, limits assumed); assay: cell-based or functional assay
TF (Innovin) [10] = biological target: T4, TF (Innovin); assay: cell-based or functional assay; remark: listed apart in the source
[11] = biological target: T1, human tissue factor (TF), …; assay: cell-based or functional assay; remark: listed apart in the source
[12] = biological target: T1, human tissue factor (TF), …; assay: FACS, A431 cells, 30 µg/mL
Protocol: as §1

[13] = biological target: T1, human tissue factor (TF), …; assay: FACS, Bx-PC3 cells, 30 µg/mL
Protocol: as §1

[14] = biological target: T1, human tissue factor (TF), …; assay: FACS, MDA-MB-231 cells, 30 µg/mL
Protocol: as §1

[15] = biological target: T2, TFECDHis (extracellular domain of …); assay: ELISA, coated TFECDHis, mean of 3
Protocol: as §3

[16] = biological target: T1, human tissue factor (TF), …; assay: FACS, TF transfected CHO cells (S1015-TF)
Protocol: as §1

[17] = biological target: T1, human tissue factor (TF), …; assay: FACS, TF transfected CHO cells (S1015-TF), 7.5 µg/mL
Protocol: as §1

[18] = biological target: T2, TFECDHis (extracellular domain of …); assay: SPR BIAcore 3000, HuMab immobilized, TFECDHis analyte
Protocol: Antibody binding to TF was analyzed by surface plasmon resonance in a BIAcore 3000 (GE Healthcare). TFECDHis was used for the analysis. HuMab antibodies (500 resonance units) were immobilized on the CM-5 sensor chip according to the procedure recommended by the manufacturer. Briefly, after surface activation by EDC and NHS HuMab antibody was injected over the activated CM-5 surface in 10 mM sodium-acetate, pH ranging from 4.0 to 5.5 at 5 μl/min. followed by 1 M Ethanolamine for deactivation. Concentration series of TFECDHis in HBS-EP buffer were injected over the immobilized antibodies at a flow rate of 30 μl/min for 180 sec. Regeneration of the HuMab surface was performed by injection of 10 mM Glycine-HCl pH 2.0 or 10 mM sodium acetate pH 3.0. Kinetic analysis was performed using double reference subtraction and model 1:1 (langmuir) binding analysis.

[19] = biological target: T2, TFECDHis (extracellular domain of …); assay: competition ELISA, inhibition of FVIIa (100 nM) binding to coated TFECDHis
Protocol: ELISA plates were coated overnight with TFECDHis (0.5 μg/mL, 100 μL per well). Plates were emptied, blocked with PBS containing 2% (v/v) chicken serum (1 hour, RT), and emptied again. […] Plates were washed and incubated with swine-anti-rabbit IgG-HRP antibody (1:2,500; DAKO). After washing, the immune complexes were visualized using ABTS as a substrate.

[20] = biological target: T3, murine tissue factor (TF) on …; assay: FACS on transfected HEK293F cells, 30 µg/mL antibody [panel A]

B1: HuMab-TF-011 Fab fragment (Fab, V domains shown)
VH: EVQLLESGGGLVQPGGSLRLSCAASGFTFSNYAMSWVRQAPGKGLEWVSSISGSGDYTYYTDSVKGRFTISRDNSKNTLYLQMNSLRAEDTAVYYCARSPWGYYLDSWGQGTLVTVSS
VL: DIQMTQSPPSLSASAGDRVTITCRASQGISSRLAWYQQKPEKAPKSLIYAASSLQSGVPSRFSGSGSGTDFTLTISSLQPEDFATYYCQQYNSYPYTFGQGTKLEIK
notes: Fab fragment of the HuMab; VH and VL as for the parent antibody; also called -011 Fab fragments
EC50 [1]: 0.132 mg/L
EC50 [2]: 0.04 mg/L

B2: HuMab-TF-013 Fab fragment (Fab, V domains shown)
VH: EVQLVQSGAEVKKPGESLKISCKGSGYSFTSYWIGWVRQMPGKGLEWMGIIYPGDSDTRYSPSFQGQVTISADKSISTAYLQWSSLKASDTAMYYCARIHRGAGYSSSWPGAFDIWGQGTMVTVSS
VL: B1 VL with P9S, A15V, S31R, R32W, N92D, Y94D, Y96I, K103R
notes: Fab fragment of the HuMab; VH and VL as for the parent antibody
EC50 [1]: 0.301 mg/L
EC50 [2]: 0.03 mg/L

B3: HuMab-TF-098 Fab fragment (Fab, V domains shown)
VH: QVQLVQSGAEVRKPGSSVKVSCKASGGSFNNYPIFWVRQAPGQGFEWMGRIIPILGITAYAQKFQGRVTITADKSTSTAYMELNSLRSEDTAVYYCAGGDDLDAFDIWGQGTMVSVSS
VL: B1 VL with P9S, A15V, R32W
notes: as for B2
EC50 [2]: 1.98 mg/L

B6: HuMab-TF-044 Fab fragment (Fab, V domains shown)
VH: QVQLVESGGGVVQPGRSLRLSCAASGFTFSDYAMHWVRQAPGKGLEWVAVIPYDGDNKYYADSVKGRFTISRDNSKNTLYLQMNSLRAEDTAVYYCAREDWGLEVDYWGQGALVTVSS
VL: AIQLTQSPSSLSASVGDRVTITCRASQGINSALAWYQQKPGKAPKLLIYDASSLESGVPSRFSGSGSGTDFTLTISSLQPEDFATYYCQQFNSYPLTFGGGTKVEIK
notes: as for B2
EC50 [1]: 8.04 mg/L
EC50 [2]: 0.59 mg/L

B7: HuMab-TF-109 Fab fragment (Fab, V domains shown)
VH: QVQLVESGGGVVQPGRSLRLSCPASGFTFSIYAMHWVRQAPGKGLEWVAVVSNDGYNKYYADSVKGRFTISRDNSKDTLYLQMNSLRAEDTAVYYCARDGQLGRGYFDYWGQGTLVTVSS
VL: EIVLTQSPATLSLSPGERAILSCRASQSVSSYLAWYQQKPGQAPRLLIYDASNRATGIPARFSGSGSGTDFTLTISSLEPEDFAVYYCQQRSNWPLTFGGGTKVEIK
notes: as for B2
EC50 [1]: 0.143 mg/L
EC50 [2]: 0.02 mg/L

More lines, now with the values ahead:

binding result [3]: no binding (tested: 30 µg/mL)
B4: anti-TF HuMab 017-D12 (antibody, V domains shown)
VH: EVQLLESGGGLVQPGGSLRLSCAASGFTFSSYAMSWVRQAPGKGLEWVSAISGSGDSTNYADSVKGRFTISRDNSKNTLYLQMNSLRAEDTAVYYCAKDGYFLLWYFDLWGRGTLVTVSS
VL: not shown
notes: Human monoclonal antibody from HuMab mice

EC50 [4]: 6.94 nM
EC50 [5]: 4.98 nM
EC50 [6]: 3.2 nM
% max inhibition of FVIIa induced ERK phosphorylation (A431) [7]: 63%
IC50, inhibition of FVIIa induced ERK phosphorylation (A431) [7]: 7.99 nM
IC50, inhibition of FVIIa induced IL-8 release (MDA-MB-231) [8]: 23.7 nM
max inhibition of FVIIa induced IL-8 release (MDA-MB-231) [8]: 76.2%
% max inhibition of FXa generation (TF (Innovin) [9]): 21%
IC50, inhibition of FXa generation (TF (Innovin) [9]): 0.07 nM
IC50, inhibition of blood coagulation (TF induced clotting time) (TF (Innovin) [10]): 7.3 nM
EC50 of ADCC, Bx-PC3 cells [11]: 0.17 nM
EC50 of ADCC, MDA-MB-231 cells [11]: 0.29 nM
Max MFI [12]: 2530
Max MFI [13]: 1110
Max MFI [14]: 1800
EC50 [15]: 0.46 nM
EC50 [16]: 2.06 nM
Max MFI [17]: 4250
Kd [18]: 4.51 nM
IC50 [19]: 1.9 nM
max inhibition [19]: 89%
binding result [20]: binds
B5: anti-TF HuMab 003 (antibody, V domains shown)
VH: QVQLVQSGAEVKKPGSSVKVSCKAPRGTFSYYTISWVRQAPGQGLEWMGRIIPILGVANYAQKFQGRVTITADKSTSTAYMELSSLRSEDTAVYYCAREGDRRYFDYWGQGTLVTVSS
VL: B6 VL with G28D, N30S, S53I
notes: Human monoclonal antibody from HuMab mice; also called HuMab-TF-003

EC50 [2]: 3.14 mg/L
B8: HuMab-TF-111 Fab fragment (Fab, V domains shown)
VH: QVQLVESGGGVVQPGRSLRLSCAGSGFTFNRYAMYWVRQAPGKGLDWVAVISNDGINKYYADSVKGRFTISRDNSKNTLYLQMNSLRAEDTAVYYCARDHTMVRGAFDYWGQGTLVTVSS
VL: B7 VL with I20T
notes: as for B2

— patent US20110300156A1 (Genmab, published 2011)
